The source of these data is US20120322122, “COMPOSITIONS AND METHODS FOR IMPROVED PLANT FEEDSTOCK” (published 2012).

B1: AtGA20ox2 promoter AC-II (dsDNA)
DNA 1: CTTAACTCTTAACTGGTCGAACCAACCATGAATGATTTGGGCATAAT
DNA 2: ATTATGCCCAAATCATTCATGGTTGGTTCGACCAGTTAAGAGTTAAG
B2: AtGA20ox2 promoter AC-IV (dsDNA)
DNA 1: ATTATAAGAAAGATTAAAAAACCAAACAAATGTACACTAACATGACT
DNA 2: AGTCATGTTAGTGTACATTTGTTTGGTTTTTTAATCTTTCTTATAAT
B3: AC-I x3 EMSA probe (dsDNA)
DNA 1: CGGTACCAGTCCACCTACCGCCACCTACCGCCACCTACCGCTGTTCTCGA
DNA 2: TCGAGAACAGCGGTAGGTGGCGGTAGGTGGCGGTAGGTGGACTGGTACCG
B4: AC-II x3 EMSA probe (dsDNA)
DNA 1: CGGTACCAGTCCACCAACCGCCACCAACCGCCACCAACCGCTGTTCTCGA
DNA 2: TCGAGAACAGCGGTTGGTGGCGGTTGGTGGCGGTTGGTGGACTGGTACCG
B5: AC-III x3 EMSA probe (dsDNA)
DNA 1: CCAGTCCACCTAACTCTACCTAACTCTACCTAACGCTGTTC
DNA 2: GAACAGCGTTAGGTAGAGTTAGGTAGAGTTAGGTGGACTGG
B6: AC-IV x3 EMSA probe (dsDNA)
DNA 1: CCAGTCCACCAAACTCTACCAAACTCTACCAAACGCTGTTC
DNA 2: GAACAGCGTTTGGTAGAGTTTGGTAGAGTTTGGTGGACTGG

The target of the first data set is T1, PvMYB4a (Panicum virgatum).
T1 chain: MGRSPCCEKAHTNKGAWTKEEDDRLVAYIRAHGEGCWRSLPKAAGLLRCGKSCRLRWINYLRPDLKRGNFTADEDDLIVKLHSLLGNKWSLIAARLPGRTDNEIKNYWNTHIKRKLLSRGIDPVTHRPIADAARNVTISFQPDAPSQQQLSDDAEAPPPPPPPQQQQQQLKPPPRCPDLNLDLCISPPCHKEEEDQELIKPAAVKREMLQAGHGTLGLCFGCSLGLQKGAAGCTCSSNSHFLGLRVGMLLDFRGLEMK
In words: EMSA; 5 mM MgCl2, 50 mM KCl, pH 7.5, 4 C. To be noted: tags: N-terminal His (pDEST17), E. coli BL21 DE3; label: biotin. On the procedure: The present and previous studies indicate that subfamily 4 MYB proteins directly bind the AC cis-elements in downstream monolignol biosynthesis gene promoters (Legay et al., 2007; Sonbol et al., 2009). […] Gel shift assays were performed to test for possible direct binding of PvMYB4 to different AtGA20-ox2 promoter regions in vitro. Analysis of the AtGA20-ox2 promoter 1500 bp upstream of the transcription start site identified an AC-II (−1200 bp) and an AC-IV (−150 bp) element. […] This is consistent with the direct binding of PvMYB4 to the synthetic AC-II elements (FIG. 4F). Binding of PvMYB4 to the AC elements in the GA20-ox promoter appears to inhibit expression of the gene.
PvMYB4a was cloned into the pDEST17 expression vector by the Gateway cloning method (Invitrogen). After sequencing, the plasmid was transformed into BL21 DE3 E. coli competent cells. IPTG was added to induce expression of PvMYB4. The recombinant protein was purified with the MagneHis™ Protein Purification System (Promega Corporation, Madison, Wis.) then concentrated with an Amicon Ultra-15 Centrifugal Filter (Millipore Corporation, Billerica, Mass.). About 700-1000 ng of purified PvMYB4 protein was used for EMSA in each reaction. […] The DNA was transferred onto Nylon membranes and signal detected with a LightShift® Chemiluminescent EMSA Kit (Thermo Fisher Scientific Inc. Rockford, Ill.) using standard protocols.
On the technique in general: In EMSA bound probe runs differently from free probe, usually more slowly.
B1: the binding result is “binds”.
Same read-out and setting: under B2 stands “no binding”.

Another data set deals with T1, PvMYB4a. The data set is described as follows: EMSA; 5 mM MgCl2, 50 mM KCl, pH 7.5, 4 C. The note with it: tags: N-terminal His (pDEST17), E. coli BL21 DE3; label: biotin. The source holds these as a separate data set. The protocol:
PvMYB4a was cloned into the pDEST17 expression vector by the Gateway cloning method (Invitrogen). After sequencing, the plasmid was transformed into BL21 DE3 E. coli competent cells. IPTG was added to induce expression of PvMYB4. The recombinant protein was purified with the MagneHis™ Protein Purification System (Promega Corporation, Madison, Wis.) then concentrated with an Amicon Ultra-15 Centrifugal Filter (Millipore Corporation, Billerica, Mass.). About 700-1000 ng of purified PvMYB4 protein was used for EMSA in each reaction. The probes were labeled by annealing biotin-labeled olignucleotides or PCR products, then purified with a gel extraction kit (QIAGEN). Binding conditions were 12 mM Tris-HCl (pH 7.5), 20 mM NaCl, 50 mM KCl, 5 mM MgCl₂, 1 mM DTT, 0.2 mM EDTA, 2.5% glycerol, 1 mM β-ME, 0.05% NP-40 and 2 fmol biotin-labeled probes. The samples were loaded and run in a 6% DNA retardant gel (Invitrogen) in the cold room after the reactions had been incubated at 4° C. for 30 minutes. The DNA was transferred onto Nylon membranes and signal detected with a LightShift® Chemiluminescent EMSA Kit (Thermo Fisher Scientific Inc. Rockford, Ill.) using standard protocols.
B3: the binding result is “binds”.
Regarding B4, the binding result is “binds”.
With B5, the binding result was “binds”.
Turning to B6, the binding result is given as “no binding”.
